Biological target: T1, GST-TNFAIP1(1–316) (UniProt Q13829 1-316)
T1 sequence (looked up): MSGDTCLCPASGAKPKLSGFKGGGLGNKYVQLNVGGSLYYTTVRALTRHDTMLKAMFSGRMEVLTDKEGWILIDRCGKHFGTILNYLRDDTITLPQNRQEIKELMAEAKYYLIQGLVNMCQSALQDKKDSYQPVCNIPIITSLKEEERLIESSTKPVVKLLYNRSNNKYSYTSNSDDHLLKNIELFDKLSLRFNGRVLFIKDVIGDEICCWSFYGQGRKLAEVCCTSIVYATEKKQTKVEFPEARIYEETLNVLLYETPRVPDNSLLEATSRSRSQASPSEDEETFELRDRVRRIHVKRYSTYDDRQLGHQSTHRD
Test: pull-down

- binding result: binds
B1: His-CSNK2B (natural protein)
chain: not shown
